Molecular target: TAFV GP (YP_003815426.1) (Tai Forest Ebola virus, UniProt Q66810 33-676)
Assay: flow cytometry on transiently transfected HEK293 cells

Binder | binding result
11886 (antibody, V domains shown) VH: QSVEESGGRLVTPGTPLTLTCIVSGFSLSNYYMSWVRQVPGKGLEWIGVIGWSGTSSYASWAKGRFTISKTASTTVDLKITSPTTEDTATYFCARVLYIGGGFNYYDAFDPWGPGTLVTVSS VL: DVVMTQTPASVSEPVGGTVTIKCQASQSIGSNLAWYQQKPGQPPKLLIYAASTLASGVPSRFKGSGSGTEFTLTISDLECADAATYYCQCTYYDSSYVYNNFGGGTEVVVK | binds
11889 (antibody, V domains shown) VH: QSLEESGGDLVKPGASLTLTCTASGFSFSSSYWICWVRQAPGKGLEWIACIYAGSSGSTYYASWAKGRFTISKTSSTTVTLQMTSLTAADTATYFCATAYAVSAPFGYTLFKYFELWGPGTLVTVSS VL: AVVLTQTASPVSAPVGGTVTIKCQASQNIYSDLAWYQQKPGQPPKLLIYDTSNLASGVSSRFKGSRSGTEFTLTISDLECADAATYYCQAYYYSSSSGDTTFGGGTEVVVK | binds
11892 (antibody, V domains shown) VH: QSMEESGGRLVTPGTPLTLTCTVSGFSLSIYSMSWVRQAPGKGLEWIGIIYLGDRAYYASWAKGRFTISKTSSTTVDLKITSPTTEDTATYFCARVAGYAGYGYAFYDAFDPWGPGTLVTVSS VL: DVVMTQTPASVSEPVGGTVTIKCQASQSIGSNLAWYQQKPGQPPKLLIYAASTLASGVPSRFKGSGSGTEFTLTINGVQCDDTATYYCQCTYYANTYVAETFGGGTEVVVK | binds
11881 (antibody, V domains shown) VH: QSMEESGGRLVTPGTPLTLTCTVSGFSLSIYSMSWVRQAPGKGLEWIGIIYLGDRAYYASWAKGRFTISKTSSTTVDLKITSPTTEDTATYFCARVAGYAGYGYAFYDAFDPWGPGTLVTVSS VL: DVVMTQTPASVSEPVGGTVTIKCQASQSIGSNLAWYQQKPGQPPKLLIYAASTLASGVPSRFKGSGSGTEFTLTINGVQCDDTATYYCQCTYYASTYVAETFGGGTEVVVK | binds
